In patent US20060216339:

T1: peptide A, RKISASGP (type-I PKG peptide substrate)
T1 chain: RKISASGP

T2: peptide D, RKRSRAE (H2Btide, type-I PKG peptide substrate)
T2 chain: RKRSRAE

T3: BPDEtide, RKISASEFDRPLR (peptide B, type-I PKG peptide substrate)
T3 chain: RKISASEFDRPLR

T4: peptide C, QKRPRRKDTP (type-II PKG substrate)
T4 chain: QKRPRRKDTP

B1: recombinant His-apPKG (Aplysia protein kinase G with N-terminal His tag, expressed in baculovirus/Sf9 cells) (protein)
chain: MGNGASSNTHFTIDGESMDVHKVKALVPELRHELRRRDKIIEQYDSQVRQKDELLKEKEAEIARLKEEVHKLKSVLQLKVDTLKAQESKPDLLSTIDENQAEPTAPRGPAKKQGVSGESPSSKTLGYVDLTHHEKDFKSKQLIKDAILSNEFIKVLAATQLREIIDCMYEKRVPKACYIIKGGERGEHLYVCADGLLEVHKEDKRLGEIKSGGLFGELAILYNCKRTASVKAVTHTTLWVLDRRVFQAIMMKTGLQRREENMAFLKSVPLLKNLPSDKLAKMSDVLEYDFFHENEYIIREGAAGDTFFILNKGEVKVTQKIAGHAEPKEVRRLKRGDYFGEKALLSEDRRTANVIALPPGVECLTVDRESFTQFVGDLNELRNKDYGDEARGAERRSGSDSTVSPVSERPVAKEFENCSLDDLQLVTTLGMGGFGRVELVQLSKEKGKTFALKCLKKKHIVETRQQEHIYSEKKIMMEADSPFITKLHKTFRDRKYVYMLMEVCLGGELWTILRDRGNFDDLTARFCVACVLEAFSYLHAKGIIYRDLKPENLLLDARGYVKLVDFGFAKKIGVGKKTWTFCGTPEYVAPEIILNKGHDHSADYWSLGILMYELLNGTPPFSGSDPMRTYNIILKGIDHIEFPKKISRSAHVLIKKLCRDNPMERLGYGKNGISDIRKNKWFQGFDWDGLMDLTLTPPIVPKVKNPTDTSNFDSYPRDMDIAADELSGWDIDF
B2: recombinant bovine PKG type-Iα (protein)
chain: MSELEEDFAKILMLKEERIKELEKRLSEKEEEIQELKRKLHKCQSVLPVPSTHIGPRTTRAQGISAEPQTYRSFHDLRQAFRKFTKSERSKDLIKEAILDNDFMKNLELSQIQEIVDCMYPVEYGKDSCIIKEGDVGSLVYVMEDGKVEVTKEGVKLCTMGPGKVFGELAILYNCTRTATVKTLVNVKLWAIDRQCFQTIMMRTGLIKHTEYMEFLKSVPTFQSLPEEILSKLADVLEETHYENGEYIIRQGARGDTFFIISKGKVNVTREDSPNEDPVFLRTLGKGDWFGEKALQGEDVRTANVIAAEAVTCLVIDRDSFKHLIGGLDDVSNKAYEDAEAKAKYEAEAAFFANLKLSDFNIIDTLGVGGFGRVELVQLKSEESKTFAMKILKKRHIVDTRQQEHIRSEKQIMQGAHSDFIVRLYRTFKDSKYLYMLMEACLGGELWTILRDRGSFEDSTTRFYTACVVEAFAYLHSKGIIYRDLKPENLILDHRGYAKLVDFGFAKKIGFGKKTWTFCGTPEYVAPEIILNKGHDISADYWSLGILMYELLTGSPPFSGPDPMKTYNIILRGIDMIEFPKKIAKNAANLIKKLCRDNPSERLGNLKNGVKDIQKHKWFEGFNWEGLRKGTLTPPIIPSVASPTDTSNFDSFPEDNDEPPPDDNSGWDIDF

Experiments:
[1] = target: T1, peptide A, RKISASGP (type-I PKG peptide …)
[2] = target: purified recombinant VASP-GST (vasodilator-stimulated phosphoprotein with C-terminal GST epitope tag), P70460
[3] = target: T2, peptide D, RKRSRAE (H2Btide, type-I PKG …)
[4] = target: T3, BPDEtide, RKISASEFDRPLR (peptide B, …)
[5] = target: recombinant mammalian ERK2 (MAPK p42 protein, bacterial recombinant, already containing phospho-tyrosine-185)
[6] = target: T4, peptide C, QKRPRRKDTP (type-II PKG …)

Chain of recombinant mammalian ERK2 (MAPK p42 protein, bacterial recombinant, already containing phospho-tyrosine-185) (P28482 2-360): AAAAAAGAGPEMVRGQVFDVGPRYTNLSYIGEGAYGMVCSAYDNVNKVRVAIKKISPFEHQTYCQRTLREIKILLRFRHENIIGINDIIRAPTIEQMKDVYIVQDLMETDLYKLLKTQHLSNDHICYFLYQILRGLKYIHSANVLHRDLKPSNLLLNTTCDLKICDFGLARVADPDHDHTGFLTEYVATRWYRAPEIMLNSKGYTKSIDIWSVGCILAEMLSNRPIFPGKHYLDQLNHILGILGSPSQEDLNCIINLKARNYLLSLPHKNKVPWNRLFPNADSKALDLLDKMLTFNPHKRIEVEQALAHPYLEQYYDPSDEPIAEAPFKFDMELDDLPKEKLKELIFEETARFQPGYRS
Chain of purified recombinant VASP-GST (vasodilator-stimulated phosphoprotein with C-terminal GST epitope tag), P70460 (P70460 whole entry): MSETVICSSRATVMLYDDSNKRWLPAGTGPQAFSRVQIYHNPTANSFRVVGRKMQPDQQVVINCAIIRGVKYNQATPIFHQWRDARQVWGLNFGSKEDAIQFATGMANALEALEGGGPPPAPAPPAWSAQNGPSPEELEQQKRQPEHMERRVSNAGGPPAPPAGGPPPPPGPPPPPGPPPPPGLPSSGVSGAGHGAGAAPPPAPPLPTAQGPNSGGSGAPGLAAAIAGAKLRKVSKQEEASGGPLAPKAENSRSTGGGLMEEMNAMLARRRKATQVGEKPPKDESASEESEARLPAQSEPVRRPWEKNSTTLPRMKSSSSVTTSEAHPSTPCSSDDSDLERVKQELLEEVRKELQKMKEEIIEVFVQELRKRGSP

Protein | kinase activity on peptide substrates [1] | phosphorylation of VASP at serine 239 (Western blot with anti-phospho-VASP (Ser 239)) [2] | kinase activity on peptide substrates [3] | dual phosphorylation of ERK2 by apPKG in the presence of 1 µg of BPDEtide (Western blot with Ab^pTpYmapk) [4] | kinase activity (transfer of ^32P from [^32P]ATP to BPDEtide) [4] | kinase activity on peptide substrates [4] | ERK2 activity (production of phospho-Elk1) compared with activation by MEK1 [5] | activation of ERK2 (phosphorylation of Elk1 by ERK2 after incubation with apPKG) [5] | phosphorylation of ERK2 at T183 (Western blot with antibody to ERKpT183) [5] | phosphorylation of ERK2 at Y185 (Western blot with antibody to ERKpY185) [5] | kinase activity on peptide substrates [6]
B1 | both kinases readily phosphorylated several PKG peptide substrates | both the bovine and Aplysia kinases phosphorylated this site | both kinases readily phosphorylated several PKG peptide substrates | The activation was specific, because it was reduced in the presence of BPDEtide | Inactive apPKG was activated by 100 nM 8-Br-cGMP and readily phosphorylated BPDEtide | both kinases readily phosphorylated several PKG peptide substrates | apPKG produced an ERK2 with similar activity as that produced by MEK1 | apPKG activated ERK2 to phosphorylate Elk1 | there was an increase in the phosphorylation of the -T- in the presence of apPKG | There was no increase in phosphorylation of the -Y- when ERK2 was incubated with apPKG | neither kinase phosphorylated peptide C
B2 | both kinases readily phosphorylated several PKG peptide substrates | both the bovine and Aplysia kinases phosphorylated this site | both kinases readily phosphorylated several PKG peptide substrates | – | – | both kinases readily phosphorylated several PKG peptide substrates | – | – | – | – | neither kinase phosphorylated peptide C
